Assay results taken from the nanobody polyreactivity screen of Harvey et al. (2022).

Experiment: yeast display, Sf9 membrane polyspecificity reagent, FACS + sequencing; frameworks hold sequencing errors
Outline: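 Genes from sorted yeast were amplified by colony PCR, read by MiSeq 2 × 250 sequencing and filtered on CDR length. These cells carried a synthetic nanobody library in Saccharomyces cerevisiae BJ5465 and were sorted by FACS into low and high (top ~1%) gates on anti-HA and streptavidin fluorescence. Polyreactivity is labelled according to the gate of origin.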

| Sequence | polyreactivity (PSR sort gate) |
| --- | --- |
| QVQLEESGGGLVQAGGSLRLSCAASGSIFVVYAMGWSRQAPGKERELVASIRTGGSTNYADSEKGRFTISRDNAKNNVYLQMNSLKPEDTAVYYCAAASWNSNRHYYVARYYYWGQGTQVTVSS | high polyreactivity |
| QVQLEESGGGLVQAGGSLRLSCAASGSIFVYYARGWYRQAPGKERELVATISRRGGSTYYADSVKGRFTISRDNAKNTVYLQMTSLKPEDTAVDYCNAAPSPVGSARSSLTRYTGMDYWGQGTQVSVSS | high polyreactivity |
| QVQLEESGGGLVQAGGSLRLSCAASGSIFYSNAMGWYRQAPGKERELVATIRSGGTTYYADSVKGRFTISRDNAKNTVYLQMNSLKPEDTAVYYCAKRYGVKYWGQGTQVTVES | high polyreactivity |
| QVQLEESGGGLVQAGGSLRLSCAASGSIIYAYAMGWSRQAPGKERELVDGIRDGGSTYYADSVKWRFTISRDNAKNTVYLQMNSLKPADTAVYYCAAGPRIRDDYWGQGTQVTVSS | low polyreactivity |
| QVQLEESGGGLVQAGGSLRLSCAASGSILVAYAMGWYRQAPGKERELVAAISSVGNTYYADSVKGRFTISRDNAKNTVYLQMNSLKPEDTAVYYCNAVYRVWYAEWSTVGSPHDYWGQGTQVTVSS | low polyreactivity |
| QVQLEESGGGLVQAGGSLRLSCAASGSILYVYAMGWSRQAPGKERELVAAMTRSGDTTSYADSVKGRFTISRDFAKNTVYLQLNSLKPEDTAVYYCDAAERRYGRGYGYWGQCTQVTVSS | high polyreactivity |
| QVQLEESGGGLVQAGGSLRLSCAASGSNFSRYAMGWYRQAPGKERELVAAISWAGNTYYADSVKGRFTISRDNAKNTVYLQMNSLKPEDTAVYYCNADRVRYLFTRYDYWGQGTQVTVSS | high polyreactivity |
| QVQLEESGGGLVQAGGSLRLSCAASGSTFHTYAMGWYRQAPGKERELVASISYGVTTYYADSVKGRFTISRDNAKNTVYLQMNSLTPEDTAVYYCAREGYNWVYLSYGYWGQGTQVTVSS | low polyreactivity |
| QVQLEESGGGLVQAGGSLRLSCAASGSTFINNAMGWYRQPPGKERELVAAISSGGSTYYADSVKGRFTISRDNAKNTVYLEMNSLKPEDTAVYYCAAEFVETKYPEMDYWGQGTQVTVSS | low polyreactivity |
| QVQLEESGGGLVQAGGSLRLSCAASGSTFLQYPMGWYRQATGKQRELVAAISWRAGSTYYADSVKGRFTISRDTAKNTVYLQMNTLKPEDTAVNYCDADGNRWRYELDDYDYWGQGTQVTGSS | low polyreactivity |
| QVQLEESGGGLVQAGGSLRLSCAASGSTFPFYAMGWYRQAPGKERELVAAISRGGSTNYADSVKGRFTISRDNAKNTVYLQMNSLKPEDTAVYYCNADVFWWYPYDYWGQGTQVTVSS | high polyreactivity |
| QVQLEESGGGLVQAGGSLRLSCAASGSTFRLYAMGWYRQAPGKERELVATITNGGNTYYADSVKGRFTISRDNAKNTVYLQMNSLKPEDTAVYYCAKRLSRRYDYWGQGTQGTVSS | low polyreactivity |
| QVQLEESGGGLVQAGGSLRLSCAASGSTFSGYAMGWYIPAPGKERELVATIRRGGSTYADSVKGRFTISRDNAKNTVYLQMNSLKPEDTAVYYCAADAYVSSQPMDYWGQGTQVTVSS | high polyreactivity |
| QVQLEESGGGLVQAGGSLRLSCAASGSTFVGNAMGWYRQAPGKERELVAAISFSGGSTYYADSVKGRFTISRDNAKNTVYLQMNSLKPEDTAVYYCAKKTRYRSRGMNYWGQGTQVTVSS | high polyreactivity |
| QVQLEESGGGLVQAGGSLRLSCAASGSTFYLYDMGWYRQAPGKERELVAVISWSGGSTSYADSVKGRFTISRDNAKNTIYLQMNSLKPEDTAVYYCNTDFYHWGQGTQVTVSS | low polyreactivity |
| QVQLEESGGGLVQAGGSLRLSCAASGSTIPPYAMGWYRQAPRKERELVAAITSGGSTYYADSVKGRFTISRDNAKNTVYLQMNSLKPEDTAVYYCAASWDPWEYDYWGQGTQVTVSS | low polyreactivity |
| QVQLEESGGGLVQAGGSLRLSCAASGSTLIYNAMGWYRPAPGKERELVAAISASGTRTYYADSVKGRFTISRDNAKNTVYLQMNSLKPEDTAVYYCNALRRAPRAEYYYWGQGTQVTVSS | high polyreactivity |
| QVQLEESGGGLVQAGGSLRLSCAASVFPYYAMRWYRQATGKERELVAAITWSGADTYYADSVKGRFTISRDNAKNTVYLQMNSLKPEDTAVYYCAAEYSPIRDYEYWGQGTQVTVSS | low polyreactivity |
| QVQLEESGGGLVQAGGSLRLSCAASYAMGWYRQAPGKERELVATITRTDRTNYADSVKGRFTISRDNAKNTVYLQMNSLKPEDTAVYYCNKVDWSAPGDSPKYGYWGQGTQVTVSS | low polyreactivity |
| QVQLEESGGGLVQAGGSLRLSCAATGRIFSYAMGWYRQAPGKETELVAGISRSGGSTYYADSVKGRFTISSDNAKITVYLQMNSVKPEDTAVYYCARYDRGGRHYYYWGQGTQVTVSS | high polyreactivity |
| QVQLEESGGGLVQAGGSLRLSCAATGSLFYTYSMGWYRQAPGKERELGASIRSDGITNYADSVKGRFTISRDNAKNTVYLQMNSLKPEDTAVYYCAARIIWSTNYYYWSGYNSWGQGTQVTVSS | high polyreactivity |
| QVQLEESGGGLVQAGGSLRLSCAAYGSIFSPYAMGWYRHAPGKERELVAAISGRGTSTYYADSVKGRFTISRDNAKNTVDLQMNTLKPEDTEVYYCAAVSYGRSGYDYWGQGTQVTVSS | high polyreactivity |

| Sequence | polyreactivity (PSR sort gate) |
| --- | --- |
| QVQLEESGGGLVQAGGSLRLSCADSGSTFYTNAMGWYRQAPGKERELVAAISASVGSTYYADSVKGRFTISRDNAKNTVYLQMNILKPEDTAVYYCAAYVWDSRRYDYWGQGTQVTVSS | low polyreactivity |
| QVQLEESGGGLVQAGGSLRLSCAGSGGIFDVYAIGWYRPAPGKERELVAAITASGGSTYYADSVQGRFTISRDNAKNTVYFQMNSLKPEDTAGYYCAVQGFRYHSREYDYWGQGTQVTVSS | low polyreactivity |
| QVQLEESGGGLVQAGGSLRLSCAPSGFIFAWYAMGCYRQAPGKERELVATISSSGARTYYADSVKGRFTISRDNAKNTVYLQMNSLKPEDTAVYYCAVGSVGRLKFYYWGQGTQVTVSS | high polyreactivity |
| QVQLEESGGGLVQAGGSLRLSCAPSGRIYNRNAMGWYRQAPGKERELVASISSGGRTNYADSVKGRFTISRDNAKTTVYLQMNSLKPEDTAVFYCAGNSPRFLLDYWGQGTQVTVSS | low polyreactivity |
| QVQLEESGGGLVQAGGSLRLSCASSGSTFATYAMGWDRQAPGKERELVAGISKRGGRTYYADSLKGRFTISRDNAKNTVYFQMNSLKPEDTAVYYCARYSPYYRVKDYDSWGQGTQVTVSS | high polyreactivity |
| QVQLEESGGGLVQAGGSLRLSCASSGYIFATYAMGWYRQAPGKERELVAAITSTGSTYYADSVKGRFTISRDNAKNTVYLQMNSLKPEDTAVYYCAAVSGYRARYYLYYYWGQGTQVTVSS | high polyreactivity |
| QVQLEESGGGLVQAGGSLRLSCPASGRTSYGNTMGTYRQAPGKERELVATISGGGSTNYADSVKGRFTISRDNAKNTVYLQMNSLKPEDTAVYYCAARRYPFPGYRYYFWGQGTQVTVSS | high polyreactivity |
| QVQLEESGGGLVQAGGSLRLSCSASGLILHGYAMGWYRQAPGKERELVAAITRSGGRTYYADSVKGRFTISRDNAKYTVYLQMNSLKPEDTAVYYCAALGWSGRYRYDYWGQGTQVTVSS | high polyreactivity |
| QVQLEESGGGLVQAGGSLRLSCSASGRIFSRNAMGWYRQAPGKERELVAAIRPRGGTTYYADSVKGRFTISRDNAKNTVYLQINSLKPYDTAVYYCATGGGRNSTDRRRLHYTYYYWGQGTQVTVSS | low polyreactivity |
| QVQLEESGGGLVQAGGSLRLSCSASGSIFRGYAMGWYRQAPGKERELVAAITSGGRTNYADSVKGRFTISRDNAKITVYLQMNSLKPEVTAVYYWIAGFRFYAYSRIAGEDYWGQGSQVTVSS | low polyreactivity |
| QVQLEESGGGLVQAGGSLRLSGAASGYTFGHYGMGWYRQAPGKERELVAAINSGGSTNDADSVKGRFTISRDNAKNTVYVQMNSLKPEDTAVYYCAADHSGGSRYDYWGQGTLVTVSS | low polyreactivity |
| QVQLEESGGGLVQAGGSLRLSSAASGGIFDVSHMGWYRQAPGKERELVAAISENGGSTYYADSVKGRFTISRDNAKNTVYLLMNSLKPADTAVYYCAADYVSLSVFSYWAWYDYWGHGTQVTVSS | low polyreactivity |
| QVQLEESGGGLVQAGGSLRLSSAASGRIYTKNAMGRYRHAPGKERELVAAITTSGGSTYYADSVKGRFTISRDNAKNSVYLQMKSLKPEDTAVYYCAAERYNGYDYWGQGTQVSVSS | high polyreactivity |
| QVQLEESGGGLVQAGGSLRLTCAASGSIFDYNAMGWYRQAHGKERELVAAITSGGITYADSVKGRFTISRDNAKNTVYLQMNSLKPEDTAVYYCAALDKLSKYRRYRYGYWGQGTQVTVSS | high polyreactivity |
| QVQLEESGGGLVQAGGSLRLTCAASGSTVDKNDMGWYRPEPGQESELVAASTSSGSSTYYADSVKGRFTISRDNAKNTVYLQMNSLKPEDTAVYYCAADKYYYDRLSPSGDYLGQGTQVTVSS | low polyreactivity |
| QVQLEESGGGLVQAGGTLRLRCAASVIIYDDKTMGWYRQAPGKEMELVAPISSSRGSTYYADSVKGRFTISRDNAKNTVYLQMNSLKPEDTAVYYCAAAVYYTYPYIVFRNYPEFDYWGQGTQVSVSS | low polyreactivity |
| QVQLEESGGGLVQAGGTLRLSCAASGIIFDGNAMVWYRQAPGKERELVASITSDSSTNYADSVKGRFTISRDNAKNTVYLQMNSLKPEDTAVYYCAADHWIAPRRDYWGQGSQVTVSS | low polyreactivity |
| QVQLEESGGGLVQAGRSLRLSCAASGRIFWRYVMGWYRQAPGKERELVAAINRNGDNTSYADSVKGRFTISRDTAKNTVYLQMNSLKPEHTEVHYCNADWWWGYGYWGQGTQVSVSS | low polyreactivity |
| QVQLEESGGGLVQAVGIIRLSCGASVSIFDAYAIGWYRKAPGKETELVASITYGGRTNYADSVEGRFTISRDNAKNTVYLQMNSLKPEDTAVYYCAAGGGYYYRYHRYPRGYWGQGTQVTVTS | high polyreactivity |
| QVQLEESGGGLVQEGGSLRISCAASGRTFLRYVMGWYRQAPGKERALVAAISSRGGSTYYADSVKGRFTISRDNAKNTVYLQMNSLKPEDTAVYYCAARFKVRDYPDGNYEYWGQGTQVTVSS | high polyreactivity |
| QVQLEESGGGLVQEGGSLRLSCAASGSIFTQNARGWNRQAPGKERELVAAITISGGGTYYADSVKGRFTISRDNAKNTVYFQMNSQKPEDTAVYHCAAAGRARYYYRYGYWGQVTQVTVSS | low polyreactivity |
